Laboratory results: patent publication US20120034160A1 (AbbVie / Abbott, published 2012)

T1: Recombinant Human IL-17 (human, UniProt Q16552 20-155, limits assumed)
T1 construct: bought reagent
T1 sequence (looked up): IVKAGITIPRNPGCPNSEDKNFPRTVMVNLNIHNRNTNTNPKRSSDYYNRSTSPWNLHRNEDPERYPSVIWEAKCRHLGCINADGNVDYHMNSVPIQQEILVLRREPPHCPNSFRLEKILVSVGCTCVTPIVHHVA


Legend:
Recombinant Human IL-17 = target: T1, Recombinant Human IL-17; assay: Biacore SPR; C-terminal VD
Summary of the method: (§1)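 Antibodies or DVD-Ig were captured at 25 μg/ml on an amine-coupled goat anti-mouse IgG (Fcγ) CM5 surface, with a blank dextran reference. Antigen was injected at 10−200 nM in HBS-EP pH 7.4 at 25° C. A global 1:1 Langmuir fit gave kon and koff, and KD = koff/kon.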

Recombinant Human IL-1β = target: T2, Recombinant Human IL-1β (human, UniProt P01584 117-269); assay: Biacore SPR; N-terminal VD
T2 construct: bought reagent; also called IL-1B
Summary of the method: as §1

Binder | Kd (Recombinant Human IL-17) | koff (Recombinant Human IL-17) | kon (Recombinant Human IL-17) | Kd (Recombinant Human IL-1β) | koff (Recombinant Human IL-1β) | kon (Recombinant Human IL-1β)
DVD1597 (bispecific antibody, human IgG1, kappa, DVD-Ig, outer AB272, inner AB273, linker set 2; V1 wt hIgG1, V2 kappa; also called DVD1597H; DVD1597L) heavy: not shown light: ETTVTQSPSSLSASVGDRVTITCITSTDIDVDMNWYQQKPGKPPKLLISQGNTLRPGVPSRFSSSGSGTDFTFTISSLQPEDFATYYCLQSDNLPLTFGQGTKLEIKRTVAAPSVFIFPPDIQMTQSPSSLSASVGDRVTITCRASSGIISYIDWFQQKPGKAPKRLIYATFDLASGVPSRFSGSGSGTDYTLTISSLQPEDFATYYCRQVGSYPETFGQGTKLEIKRTVAAPSVFIFPPSDEQLKSGTASVVCLLNNFYPREAKVQWKVDNALQSGNSQESVTEQDSKDSTYSLSSTLTLSKADYEKHKVYACEVTHQGLSSPVTKSFNRGEC | 12 pM | 4.1e-06 s⁻¹ | 350000 M⁻¹ s⁻¹ | 75 pM | 0.00063 s⁻¹ | 8.4e+06 M⁻¹ s⁻¹
DVD1603 (bispecific antibody, human IgG1, kappa, DVD-Ig, outer AB270, inner AB274, linker set 2; V1 wt hIgG1, V2 kappa; also called DVD1603H; DVD1603L) heavy: not shown light: DTQVTQSPSSLSASVGDRVTITCITSTDIDVDMNWYQQKPGKPPKLLISQGNTLRPGVPSRFSSSGSGTDFTFTISSLQPEDFATYYCLQSDNLPLTFGQGTKLEIKRTVAAPSVFIFPPEIVLTQSPDFQSVTPKEKVTITCRASQDIGSELHWYQQKPDQPPKLLIKYASHSTSGVPSRFSGSGSGTDFTLTINGLEAEDAGTYYCHQTDSLPYTFGPGTKVDIKRTVAAPSVFIFPPSDEQLKSGTASVVCLLNNFYPREAKVQWKVDNALQSGNSQESVTEQDSKDSTYSLSSTLTLSKADYEKHKVYACEVTHQGLSSPVTKSFNRGEC | ≤ 0.27 pM | < 1e-06 s⁻¹ | 310000 M⁻¹ s⁻¹ | 69 pM | 0.00048 s⁻¹ | 6.9e+06 M⁻¹ s⁻¹
DVD1599 (bispecific antibody, human IgG1, kappa, V1 wt hIgG1, V2 kappa; also called DVD1599H; DVD1599L) heavy: not shown light: DIQMTQSPSSLSASVGDRVTITCRASGNIHNYLTWYQQTPGKAPKLLIYNAKTLADGVPSRFSGSGSGTDYTFTISSLQPEDIATYYCQHFWSIPYTFGQGTKLQITRTVAAPSVFIFPPEIVLTQSPDFQSVTPKEKVTITCRASQDIGSELHWYQQKPDQPPKLLIKYASHSTSGVPSRFSGSGSGTDFTLTINGLEAEDAGTYYCHQTDSLPYTFGPGTKVDIKRTVAAPSVFIFPPSDEQLKSGTASVVCLLNNFYPREAKVQWKVDNALQSGNSQESVTEQDSKDSTYSLSSTLTLSKADYEKHKVYACEVTHQGLSSPVTKSFNRGEC | ≤ 0.074 pM | < 1e-06 s⁻¹ | 120000 M⁻¹ s⁻¹ | 21 pM | 4.1e-05 s⁻¹ | 2e+06 M⁻¹ s⁻¹

Now from value to binder:

Kd (Recombinant Human IL-17) | koff (Recombinant Human IL-17) | kon (Recombinant Human IL-17) | Kd (Recombinant Human IL-1β) | koff (Recombinant Human IL-1β) | kon (Recombinant Human IL-1β) | Binder
≤ 0.12 pM | < 1e-06 s⁻¹ | 120000 M⁻¹ s⁻¹ | 16 pM | 2e-05 s⁻¹ | 1.2e+06 M⁻¹ s⁻¹ | DVD1601 (bispecific antibody, human IgG1, kappa, V1 wt hIgG1, V2 kappa; also called DVD1601H; DVD1601L) heavy: not shown light: DIQMTQSPSSLSASVGDRVTITCRASGNIHNYLTWYQQTPGKAPKLLIYNAKTLADGVPSRFSGSGSGTDYTFTISSLQPEDIATYYCQHFWSIPYTFGQGTKLQITRTVAAPSVFIFPPEIVLTQSPDFQSVTPKEKVTITCRASQDIGSELHWYQQKPDQPPKLLIKYASHSTSGVPSRFSGSGSGTDFTLTINGLEAEDAGTYYCHQTDSLPYTFGPGTKVDIKRTVAAPSVFIFPPSDEQLKSGTASVVCLLNNFYPREAKVQWKVDNALQSGNSQESVTEQDSKDSTYSLSSTLTLSKADYEKHKVYACEVTHQGLSSPVTKSFNRGEC
4.3 pM | 6e-06 s⁻¹ | 1.4e+06 M⁻¹ s⁻¹ | 55 pM | 0.00041 s⁻¹ | 7.4e+06 M⁻¹ s⁻¹ | DVD1595 (bispecific antibody, human IgG1, kappa, DVD-Ig, outer AB271, inner AB273, linker set 2; V1 wt hIgG1, V2 kappa; also called DVD1595H; DVD1595L) heavy: not shown light: DTVVTQSPAFLSVTPGEKVTITCITSTDIDVDMNWYQQKPDQPPKLLISQGNTLRPGVPSRFSSSGSGTDFTFTISSLEAEDAATYYCLQSDNLPLTFGQGTKLEIKRTVAAPSVFIFPPDIQMTQSPSSLSASVGDRVTITCRASSGIISYIDWFQQKPGKAPKRLIYATFDLASGVPSRFSGSGSGTDYTLTISSLQPEDFATYYCRQVGSYPETFGQGTKLEIKRTVAAPSVFIFPPSDEQLKSGTASVVCLLNNFYPREAKVQWKVDNALQSGNSQESVTEQDSKDSTYSLSSTLTLSKADYEKHKVYACEVTHQGLSSPVTKSFNRGEC
